In paper PMC8766458, “Deciphering the mechanism of processive ssDNA digestion by the Dna2-RPA ensemble” (Nature Communications, 2022):

Target: dna2-D657A (nuclease-dead);RPA (Saccharomyces cerevisiae;Saccharomyces …, UniProt P38859;P22336;P26754;P26755 1-1522;1-621;1-273;1-122, D657A|)
Assay: EMSA; ternary complex; EMSA: 25 mM Tris-HCl pH 7.5, 150 mM KCl, 1 mM DTT, 100 µg/mL BSA, 5 nM DNA, 30 °C 10 min, 4% native PAGE in 0.2x TBE; DNA curtains: 50 or 150 mM NaCl, 0.1 nM RPA-GFP
Details: protein: recombinant;recombinant; tags: His6, FLAG;none; copies: 1;1;1;1; label: 32P 5'-end; 5' overhang 30 nt (dT30), 20 bp duplex

dna2-D657A (nuclease-dead);RPA, sequence (P38859 whole entry D657A, chain 1 of 4): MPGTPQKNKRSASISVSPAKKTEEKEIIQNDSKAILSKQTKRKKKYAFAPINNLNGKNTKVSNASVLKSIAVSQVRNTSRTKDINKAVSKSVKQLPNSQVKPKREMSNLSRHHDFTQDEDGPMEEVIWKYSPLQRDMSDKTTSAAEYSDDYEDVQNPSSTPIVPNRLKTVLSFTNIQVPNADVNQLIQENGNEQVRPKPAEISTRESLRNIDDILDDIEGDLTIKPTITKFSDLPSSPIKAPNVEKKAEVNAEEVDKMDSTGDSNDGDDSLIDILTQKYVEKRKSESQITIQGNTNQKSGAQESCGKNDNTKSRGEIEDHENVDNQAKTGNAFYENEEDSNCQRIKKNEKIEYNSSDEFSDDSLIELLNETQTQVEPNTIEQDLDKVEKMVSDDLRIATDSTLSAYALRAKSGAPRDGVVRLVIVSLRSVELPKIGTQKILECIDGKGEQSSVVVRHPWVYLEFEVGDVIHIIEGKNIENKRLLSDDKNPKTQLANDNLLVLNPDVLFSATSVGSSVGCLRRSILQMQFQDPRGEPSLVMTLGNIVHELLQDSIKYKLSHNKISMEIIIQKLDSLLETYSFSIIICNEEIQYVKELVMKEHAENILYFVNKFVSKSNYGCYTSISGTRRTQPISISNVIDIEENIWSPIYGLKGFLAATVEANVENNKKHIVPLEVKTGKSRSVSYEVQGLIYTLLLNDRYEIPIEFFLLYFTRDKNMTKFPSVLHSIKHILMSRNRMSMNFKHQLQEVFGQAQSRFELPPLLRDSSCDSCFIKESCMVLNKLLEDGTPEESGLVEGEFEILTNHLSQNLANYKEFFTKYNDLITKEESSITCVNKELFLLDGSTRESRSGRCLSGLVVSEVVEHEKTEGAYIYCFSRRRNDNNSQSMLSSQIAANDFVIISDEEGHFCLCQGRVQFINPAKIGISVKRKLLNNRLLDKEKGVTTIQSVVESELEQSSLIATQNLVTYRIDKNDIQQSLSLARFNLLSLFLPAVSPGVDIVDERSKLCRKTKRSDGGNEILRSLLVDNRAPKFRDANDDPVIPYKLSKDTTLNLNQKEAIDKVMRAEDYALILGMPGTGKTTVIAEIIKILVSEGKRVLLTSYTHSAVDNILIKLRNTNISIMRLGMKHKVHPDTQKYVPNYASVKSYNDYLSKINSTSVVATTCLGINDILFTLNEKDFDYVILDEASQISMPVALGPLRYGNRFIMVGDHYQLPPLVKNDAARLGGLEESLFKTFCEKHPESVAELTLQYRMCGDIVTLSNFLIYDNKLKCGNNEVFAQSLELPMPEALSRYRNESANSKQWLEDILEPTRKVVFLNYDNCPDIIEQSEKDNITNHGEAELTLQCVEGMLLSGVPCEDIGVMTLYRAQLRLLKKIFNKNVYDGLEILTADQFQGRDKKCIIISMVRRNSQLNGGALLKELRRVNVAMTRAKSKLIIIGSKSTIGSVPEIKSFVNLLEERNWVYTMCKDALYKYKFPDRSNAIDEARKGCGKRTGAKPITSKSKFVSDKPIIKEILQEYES
dna2-D657A (nuclease-dead);RPA, sequence (P22336 whole entry, chain 2 of 4): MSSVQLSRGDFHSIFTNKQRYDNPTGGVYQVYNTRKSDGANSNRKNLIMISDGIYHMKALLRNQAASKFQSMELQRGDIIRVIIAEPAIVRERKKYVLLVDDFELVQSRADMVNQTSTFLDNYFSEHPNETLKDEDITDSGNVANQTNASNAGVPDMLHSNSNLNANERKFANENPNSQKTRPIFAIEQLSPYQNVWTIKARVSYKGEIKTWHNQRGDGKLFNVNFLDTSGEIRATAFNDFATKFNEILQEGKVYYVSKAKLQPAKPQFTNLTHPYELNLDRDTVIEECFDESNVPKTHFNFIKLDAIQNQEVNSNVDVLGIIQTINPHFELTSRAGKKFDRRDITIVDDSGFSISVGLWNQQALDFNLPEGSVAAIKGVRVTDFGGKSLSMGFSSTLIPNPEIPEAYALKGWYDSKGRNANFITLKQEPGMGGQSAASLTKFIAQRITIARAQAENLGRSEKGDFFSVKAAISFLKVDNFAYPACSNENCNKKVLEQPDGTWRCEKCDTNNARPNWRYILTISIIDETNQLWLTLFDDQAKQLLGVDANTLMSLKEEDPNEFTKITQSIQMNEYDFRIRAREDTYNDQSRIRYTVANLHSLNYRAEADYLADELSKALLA
dna2-D657A (nuclease-dead);RPA, sequence (P26754 whole entry, chain 3 of 4): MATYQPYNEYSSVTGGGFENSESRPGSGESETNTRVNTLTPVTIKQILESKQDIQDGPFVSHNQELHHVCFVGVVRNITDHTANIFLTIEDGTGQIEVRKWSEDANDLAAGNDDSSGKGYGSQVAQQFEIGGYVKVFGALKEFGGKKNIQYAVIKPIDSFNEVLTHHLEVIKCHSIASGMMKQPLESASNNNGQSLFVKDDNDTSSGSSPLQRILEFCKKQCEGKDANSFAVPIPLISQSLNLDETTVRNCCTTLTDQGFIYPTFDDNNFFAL
dna2-D657A (nuclease-dead);RPA, sequence (P26755 whole entry, chain 4 of 4): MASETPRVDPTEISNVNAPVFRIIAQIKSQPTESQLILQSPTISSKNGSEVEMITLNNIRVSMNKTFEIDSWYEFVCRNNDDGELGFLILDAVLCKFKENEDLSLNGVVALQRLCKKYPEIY

B1: 5'-overhanging dT(30) DNA (S10+S11) (mixed)
DNA 1: TTTTTTTTTTTTTTTTTTTTTTTTTTTTTTTTGATAAGAGGTCATTTGAA
DNA 2: TTCAAATGACCTCTTATCAA
binding result: binds
